Assay results: patent US5817516, “Methods for proliferating and differentiating B cells with high density membrane CD40 ligand” (Boehringer Ingelheim Pharmaceuticals, Inc., dated 1998)

Molecular target: CD40 on human B cells (human, UniProt P25942)
Assay: cell-based or functional assay

B1: high density, membrane bound mouse CD40 ligand (ligand)
chain: MIETYSQPSPRSVATGLPASMKIFMYLLTVFLITQMIGSVLFAVYLHRRLDKVEEEVNLHEDFVFIKKLKRCNKGEGSLSLLNCEEMRRQFEDLVKDITLNKEEKKENSFEMQRGDEDPQIAAHVVSEANSNAASVLQWAKKGYYTMKSNLVMLENGKQLTVKREGLYYVYTQVTFCSNREPSSQRPFIVGLWLKPSSGSERILLKAANTHSSSQLCEQQSVHLGGVFELQAGASVFVNVTEASQVIHRVGFSSFGLLKL
expansion of human B cells grown with hdmb CD40 ligand as described for the mouse cells: ~100 fold
